Target: T1, recombinant mouse HEXB (beta-subunit of beta-hexosaminidase) (mouse, UniProt P20060 32-536)
T1 sequence (looked up): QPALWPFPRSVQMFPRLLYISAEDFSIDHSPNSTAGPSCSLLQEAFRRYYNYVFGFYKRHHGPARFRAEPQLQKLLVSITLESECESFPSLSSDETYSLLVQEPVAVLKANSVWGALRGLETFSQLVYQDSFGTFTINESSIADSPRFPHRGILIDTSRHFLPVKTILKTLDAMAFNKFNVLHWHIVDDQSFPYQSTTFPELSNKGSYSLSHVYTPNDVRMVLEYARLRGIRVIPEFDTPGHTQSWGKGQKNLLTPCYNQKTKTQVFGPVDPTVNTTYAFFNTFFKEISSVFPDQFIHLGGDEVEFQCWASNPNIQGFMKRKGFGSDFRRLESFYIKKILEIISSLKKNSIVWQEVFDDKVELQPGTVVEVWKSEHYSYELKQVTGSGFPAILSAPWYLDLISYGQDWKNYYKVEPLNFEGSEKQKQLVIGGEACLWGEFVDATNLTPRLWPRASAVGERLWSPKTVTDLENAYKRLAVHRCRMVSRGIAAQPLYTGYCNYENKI
Assay: binding to a coated plate, bound protein read by HexA enzymatic activity

Kd: 166 nM
B1: mouse-Transferrin-G-CSF-HEXA (mTr-G-CSF-HEXA) (other)
chain: HAIYPRHGSVPLVTVSALPPSLPLPRSFLLKSLEQVRKIQASGSVLLEQLCATYKLCHPEELVLLGHSLGIPKASLSGCSSQALQQTQCLSQLHSGLCLYQGLLQALSGISPALAPTLDLLQLDVANFATTIWQQMENLGVAPTVQPTQSAMPAFTSAFQRRAGGVLAISYLQGFLETARLALHHLAGSGSDRVYIHPFHLGSGSGGSGGSGGSGSGGSGSGGSGGSGLWPWPQYIQTYHRRYTLYPNNFQFRYHVSSAAQAGCVVLDEAFRRYRNLLFGSGSWPRPSFSNKQQTLGKNILVVSVVTAECNEFPNLESVENYTLTINDDQCLLASETVWGALRGLETFSQLVWKSAEGTFFINKTKIKDFPRFPHRGVLLDTSRHYLPLSSILDTLDVMAYNKFNVFHWHLVDDSSFPYESFTFPELTRKGSFNPVTHIYTAQDVKEVIEYARLRGIRVLAEFDTPGHTLSWGPGAPGLLTPCYSGSHLSGTFGPVNPSLNSTYDFMSTLFLEISSVFPDFYLHLGGDEVDFTCWKSNPNIQAFMKKKGFTDFKQLESFYIQTLLDIVSDYDKGYVVWQEVFDNKVKVRPDTIIQVWREEMPVEYMLEMQDITRAGFRALLSAPWYLNRVKYGPDWKDMYKVEPLAFHGTPEQKALVIGGEACMWGEYVDSTNLVPRLWPRAGAVAERLWSSNLTTNIDFAFKRLSHFRCELVRRGIQAQPISVGYCEQEFEQT

From PMC11357852 (Molecular Therapy. Methods & Clinical Development, 2024)
